# According to patent publication US20110318347A1:
# B1: Nanobody 238D4 (VHH, from a related filing, part only)
# VHH: EVQLMESGGGLVQAGGSLRLSCAASGRTFNNYAMGWFRRAPGKEREFVAAITRSGVRSGVSAIYGDSVKDRFTISRDNAKNTLYLQMNSLKPEDTAVYTCAASAIGSGALRRFEYDYSGQGTQVTVSS
# Experiments:
# human CXCR4 (human) [1] = molecular target: human CXCR4 (human)
# CCR5 = CCR5 (UniProt P51681); experiment: cell-based or functional assay
# human CXCR4 (human) [2] = experiment: cell-based or functional assay
# human CXCR4 (human) [3] = experiment: competition with [125I]-238D2 on HEK293T-CXCR4 membranes
# human CXCR4 (human) [4] = experiment: competition with [125I]-238D4 on HEK293T-CXCR4 membranes
# human CXCR4 (human) [5] = experiment: competition with [125I]-CXCL12 on HEK293T-CXCR4 membranes
# human CXCR4 (human) [6] = experiment: competition vs [125I]-238D2 (3 nM), membranes of HEK293T cells expressing CXCR4
# human CXCR4 (human) [7] = experiment: competition vs [125I]-238D4 (3 nM), membranes of HEK293T cells expressing CXCR4
# human CXCR4 (human) [8] = experiment: competition vs [125I]-CXCL12 (40 pM), membranes of HEK293T cells expressing CXCR4
# human CXCR4 (human) [9] = experiment: periplasmic fraction (1:10), displacement of [125I]-CXCL12, HEK293T-CXCR4 membranes; - = 0-29%, + = 30-69%, ++ = 70-100%
# Chain of CCR5 (P51681 whole entry): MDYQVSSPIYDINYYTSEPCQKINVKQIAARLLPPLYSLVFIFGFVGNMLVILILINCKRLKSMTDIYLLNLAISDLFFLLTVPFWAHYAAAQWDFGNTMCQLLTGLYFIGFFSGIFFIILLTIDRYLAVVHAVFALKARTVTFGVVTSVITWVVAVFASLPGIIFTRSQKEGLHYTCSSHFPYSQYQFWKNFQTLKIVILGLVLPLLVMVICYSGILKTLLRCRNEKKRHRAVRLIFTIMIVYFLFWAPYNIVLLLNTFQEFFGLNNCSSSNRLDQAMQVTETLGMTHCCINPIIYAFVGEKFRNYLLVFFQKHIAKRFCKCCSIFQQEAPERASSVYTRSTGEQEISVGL
binder,measurement,setting,value
B1,"IC50 (read off the curve), migration of Jurkat cells towards 0.3 nM CXCL12",human CXCR4 (human) [1],9 nM
same,"Anti-HIV-1 activity (in nM), PBMC/BaL",CCR5,> 100 nM
same,"Anti-HIV-1 activity (in nM), U87.CD4.CCR5/BaL",CCR5,> 500 nM
same,"IC50, HIV-1 BaL, PBMC donor 1",CCR5,> 1 µg/mL
same,"IC50, HIV-1 BaL, PBMC donor 2",CCR5,> 1 µg/mL
same,"IC90, HIV-1 BaL, PBMC donor 1",CCR5,> 1 µg/mL
same,"IC90, HIV-1 BaL, PBMC donor 2",CCR5,> 1 µg/mL
same,"nM IC50, HIV-1 BAL, PBMC donor 1",CCR5,> 67 nM
same,"nM IC50, HIV-1 BAL, PBMC donor 2",CCR5,> 67 nM
same,"Anti-HIV-1 activity (in nM), MT-4/HE",human CXCR4 (human) [2],82 nM
same,"Anti-HIV-1 activity (in nM), MT-4/NL4.3",human CXCR4 (human) [2],40.3 nM
same,"Anti-HIV-1 activity (in nM), PBMC/HE",human CXCR4 (human) [2],13.6 nM
same,"Anti-HIV-1 activity (in nM), PBMC/NL4.3",human CXCR4 (human) [2],13.7 nM
same,"Anti-HIV-1 activity (in nM), U87.CD4.CXCR4/NL4.3",human CXCR4 (human) [2],107 nM
same,"CRE activation, HEK293T-CXCR4-CREbgal/0.01-100 nM CXCL12, Imax (%)",human CXCR4 (human) [2],90%
same,"CRE activation, HEK293T-CXCR4-CREbgal/0.01-100 nM CXCL12, pKi or pIC50 (pKB by the text)",human CXCR4 (human) [2],7.7
same,"Chemotaxis, Jurkat/0.3 nM CXCL12, Imax (%)",human CXCR4 (human) [2],101%
same,"Chemotaxis, Jurkat/0.3 nM CXCL12, pKi or pIC50",human CXCR4 (human) [2],8.31
same,"IC50, HIV-1 NL4.3, MT-4 cells, exp. 1",human CXCR4 (human) [2],0.833 µg/mL
same,"IC50, HIV-1 NL4.3, PBMC donor 1",human CXCR4 (human) [2],> 1 µg/mL
same,"IC50, HIV-1 NL4.3, PBMC donor 2",human CXCR4 (human) [2],0.551 µg/mL
same,"IC50, HIV-1 UG270, PBMC donor 1",human CXCR4 (human) [2],> 1 µg/mL
same,"IC50, HIV-1 UG270, PBMC donor 2",human CXCR4 (human) [2],> 1 µg/mL
same,"IC90, HIV-1 NL4.3, MT-4 cells, exp. 1",human CXCR4 (human) [2],> 1 µg/mL
same,"IC90, HIV-1 NL4.3, PBMC donor 1",human CXCR4 (human) [2],> 1 µg/mL
same,"IC90, HIV-1 NL4.3, PBMC donor 2",human CXCR4 (human) [2],> 1 µg/mL
same,"IC90, HIV-1 UG270, PBMC donor 1",human CXCR4 (human) [2],> 1 µg/mL
same,"IC90, HIV-1 UG270, PBMC donor 2",human CXCR4 (human) [2],> 1 µg/mL
same,"IP accumulation, HEK293T-CXCR4-Gαqi5/30 nM CXCL12, Imax (%)",human CXCR4 (human) [2],90%
same,"IP accumulation, HEK293T-CXCR4-Gαqi5/30 nM CXCL12, pKi or pIC50",human CXCR4 (human) [2],8.39
same,"nM IC50, HIV-1 NL4.3, PBMC donor 1",human CXCR4 (human) [2],> 67 nM
same,"nM IC50, HIV-1 NL4.3, PBMC donor 2",human CXCR4 (human) [2],36.7 nM
same,"nM IC50, HIV-1 UG270, PBMC donor 1",human CXCR4 (human) [2],> 67 nM
same,"nM IC50, HIV-1 UG270, PBMC donor 2",human CXCR4 (human) [2],> 67 nM
same,IC50 (read off the curve),human CXCR4 (human) [3],3 nM
same,IC50 (read off the curve),human CXCR4 (human) [4],4 nM
same,IC50 (read off the curve),human CXCR4 (human) [5],10 nM
same,Displacem. (%),human CXCR4 (human) [6],101%
same,pKi,human CXCR4 (human) [6],8.8
same,Displacem. (%),human CXCR4 (human) [7],103%
same,pKi,human CXCR4 (human) [7],8.55
same,Displacem. (%),human CXCR4 (human) [8],99%
same,pKi,human CXCR4 (human) [8],8.22
same,percent inhibition of specific [125I]-CXCL12 binding,human CXCR4 (human) [9],70 to 100%
